For orientation: EC50 means the concentration at which the effect is half-maximal. The low end stands for an effect from little substance, the high end for a need for much substance.

Experimental findings from patent US20090304580A1 are described below.

For test [1], the target named is PAM4 antigen (human pancreatic cancer mucin, CaPan1) (human). The test is described as follows: ELISA on target mucin antigen (FIG. 9). On the technique in general: In an ELISA, binding on a coated surface is turned into a signal by an enzyme label.
The target of test [2] is IMP-288 di-HSG hapten-peptide, DOTA-D-Tyr-D-Lys(HSG)-D-Glu-D-Lys(HSG)-NH2. Nature of the test: size-exclusion elution of 111In-IMP-288 with TF10. A general note: Size exclusion chromatography separates by hydrodynamic size, large species first.
Test [3] deals with PAM4 antigen (human pancreatic cancer mucin, CaPan1) (human). Nature of the test: radiolabelled TF10 mixed with mucin, size-exclusion analysis.
Test [4] shares this target. The test is described as follows: size-exclusion elution of the 111In-IMP-288/TF10 complex with excess mucin.

The substance PAM4-F(ab')2 (antibody) returned an EC50 in test [1] of 1.83 nM.

In test [1], “TF10 bispecific ([hPAM4]2 x h679) trimeric DNL construct (bispecific antibody)” came in with an EC50 of 1.42 nM. Moreover, in test [2], the percent bound amounted to 90%. This substance had an immunoreactive fraction bound in test [3] of 87%. The substance further displayed a percent of TF10-bound peptide eluting at higher molecular weight with excess mucin in test [4] of 92%.
